# Values joined by “and” are separate entries in the source; they are usually repeats but may differ in a detail not shown here. Equal values may be shown once.
# T1: trypsin inhibitor type IV-0 (Ovo-inhibitor), Sigma T-1886, P10184
# T1 chain: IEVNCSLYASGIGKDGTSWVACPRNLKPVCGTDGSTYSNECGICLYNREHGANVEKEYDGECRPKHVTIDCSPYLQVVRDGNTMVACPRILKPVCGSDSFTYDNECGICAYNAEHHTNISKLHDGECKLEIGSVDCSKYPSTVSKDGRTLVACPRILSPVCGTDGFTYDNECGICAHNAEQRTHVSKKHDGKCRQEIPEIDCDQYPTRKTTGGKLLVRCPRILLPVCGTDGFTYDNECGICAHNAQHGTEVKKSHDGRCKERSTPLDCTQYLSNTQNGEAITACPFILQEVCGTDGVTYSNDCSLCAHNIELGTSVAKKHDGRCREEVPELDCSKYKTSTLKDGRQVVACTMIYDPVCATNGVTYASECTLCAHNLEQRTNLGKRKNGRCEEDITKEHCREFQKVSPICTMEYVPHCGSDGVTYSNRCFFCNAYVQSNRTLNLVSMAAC
# T2: trypsin inhibitor type IV-0 (Ovo-inhibitor), Sigma T-1886 (UniProt P10184)
# T2 sequence: T1 chain
# B1: SAVINASE (subtilisin 309 from B. lentus) (protein)
# chain: AQSVPWGISRVQAPAAHNRGLTGSGVKVAVLDTGISTHPDLNIRGGASFVPGEPSTQDGNGHGTHVAGTIAALNNSIGVLGVAPSAELYAVKVLGASGSGSVSSIAQGLEWAGNNGMHVANLSLGSPSPSATLEQAVNSATSRGVLVVAASGNSGAGSISYPARYANAMAVGATDQNNNRASFSQYGAGLDIVAPGVNVQSTYPGSTYASLNGTSMATPHVAGAAALVKQKNPSWSNVQIRNHLKNTATSLGSTNLYGSGLVNAEAATR
# Target: T1, trypsin inhibitor type IV-0 …
row,Molecule,Residual Activity (%)
1,B1,<5%

# Target: T2, trypsin inhibitor type IV-0 (Ovo-inhibitor), Sigma T-1886
row,Molecule,Residual Activity (%)
1,subtilisin 309 variant S99SD + S99A + N155NR,6.5%
2,subtilisin 309 variant L217LP + S99SD + S99A,97.0%
3,subtilisin 309 variant S99SD + S99A + N155ND,10.7% and 7.1%
4,subtilisin 309 variant S99D + S101R + S103A + V104I + G160S + A194P + V199M + V205I + *216aD,24.0%
5,subtilisin 309 variant S99SD + S99A + N155NA,7.4%
6,subtilisin 309 variant S99D + S101R + S103A + V104I + G160S + A194P + V199M + V205I + *216aE,25.4%
7,subtilisin 309 variant S99SD + S99A + S216SDP,35.0%
8,subtilisin 309 variant L42LN,69.2%
